Patent publication US20240352087A1

How the values were obtained:
Experiment in all cases: HLA-binding assay
B*35:01 = molecular target: B*35:01
A*29:02 = molecular target: A*29:02
B*40:01 = molecular target: B*40:01
B*27:05 = molecular target: B*27:05

Row | Substance | IC50 (B*35:01) [nM] | IC50 (B*27:05) [nM] | other results
1 | E5 65-73 |  |  | IC50 (A*29:02): 444 nM
2 | E6 81-90 |  |  | IC50 (B*40:01): 0.54 nM
3 | E6 137-144 |  | 13 | 

Second part, led by results:

Row | IC50 (B*35:01) [nM] | IC50 (B*27:05) [nM] | Substance | other results
4 | 1.4 |  | E5 55-63 | 
5 | 51 |  | E6 52-61 | 
6 |  | 12 | E6 83-90 | 
